Substitutions are numbered along the chain they refer to. Names and notes keep the numbering of the source.
T1: human TIGIT on cells (Jurkat-hTIGIT, human primary T cells) (human, UniProt Q495A1 22-244)
T1 sequence (looked up): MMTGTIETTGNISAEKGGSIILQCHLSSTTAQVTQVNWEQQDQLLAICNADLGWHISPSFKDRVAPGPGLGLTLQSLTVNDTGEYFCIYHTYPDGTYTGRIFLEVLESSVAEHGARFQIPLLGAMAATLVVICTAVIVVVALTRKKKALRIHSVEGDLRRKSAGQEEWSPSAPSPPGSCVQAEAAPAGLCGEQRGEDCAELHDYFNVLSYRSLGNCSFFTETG

T2: mouse TIGIT on cells (Jurkat-mTIGIT) (mouse, UniProt P86176 29-249)
T2 construct: whole, on cells
T2 sequence (looked up): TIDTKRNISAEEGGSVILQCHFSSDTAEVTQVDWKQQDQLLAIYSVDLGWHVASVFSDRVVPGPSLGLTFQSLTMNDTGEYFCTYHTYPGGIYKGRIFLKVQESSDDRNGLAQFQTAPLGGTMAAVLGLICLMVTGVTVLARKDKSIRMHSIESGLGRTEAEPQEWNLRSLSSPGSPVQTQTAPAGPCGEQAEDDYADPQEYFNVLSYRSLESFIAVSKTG

B1: anti-TIGIT antibody clone 29520 (antibody, V domains shown)
VH: QVQLVESGGGLVQPGRSLRLSCAASGFTFRDYAMHWVRQAPGKGLEWVSGITWNSGLIGYADSVKGRFTISRDNAKNSLYLQMNSLRAEDTALYYCAKPVPRLRGLDVWGQGTMVTVSS
VL: DIQLTQSPSSVSASVGDRVTITCRASQGISSWLAWYQQKPGKAPKLLIYGASSLQSGVPSRFSGSGSGTDFTLTISSLQPEDFATYYCQQAFYLPWTFGGGTKVEIK
notes: human IgG; Fab for 'Fab KD' columns
B2: anti-TIGIT antibody clone 29523 (antibody, V domains shown)
VH: EVQLVESGGGVVQPGRSLRLSCAASGFTFGSYYMHWVRQAPGKGLEWVAVIWPDGSNKLYADSVKGRFTISRDNSKNTLYLQMNSLRAEDTALYYCAKPVPKSRALDVWGQGTMVTVSS
VL: B1 VL
notes: as for B1
B3: anti-TIGIT antibody clone 29527 (antibody, V domains shown)
VH: B2 VH with E1Q, G30S, Y32S, W52G, P53A, L59Y, K65E, K102R, S103R, A105G
VL: B1 VL
notes: human IgG
B4: anti-TIGIT antibody clone 29478 (antibody, V domains shown)
VH: EVQLVESGGGVVQPGRSLRLSCAASGFTFESYGMVWVRQAPGKGLEWVASILYDGSNRYYADSVKGRFTVSRDNSKNTLYLQMNSLRAEDTAVYYCARVSYYYDSVELRWAEYFQHWGQGTLVTVSS
VL: EIVLTQSPATLSLSPGERATLSCRASQSVSSYLAWYQQKPGQAPRLLIYDASKRATGIPARFSGSGSGTDFTLTISSLEPEDFAVYYCQQVHNFPLTFGGGTKVEIK
notes: as for B1
B5: anti-TIGIT antibody clone 26486 (antibody, V domains shown)
VH: QVQLQESGPGLVKPSETLSLTCAVSGYSISSGYYWAWIRQPPGKGLEWIGSIYHSGSTYYNPSLKSRVTISVDTSKNQFSLKLSSVTAADTAVYYCAIEGANYYDFGYVAFDIWGQGTMVTVSS
VL: EIVMTQSPATLSVSPGERATLSCRASQSVSSNLAWYQQKPGQAPRLLIYGASTRATGIPARFSGSGSGTEFTLTISSLQSEDFAVYYCQQSPPWPRTFGGGTKVEIK
notes: Naive parent clone, VH4-0B; human IgG; Fab for 'Fab KD' columns
B6: anti-TIGIT antibody clone 29494 (antibody, V domains shown)
VH: QVQLQESGPGLVKPSETLSLTCTVSGGSISSGSYYLAWIRQPPGKGLEWIGSIFRSGSTYYNPSLESRVTISVDTSKNQFSLKLSSVTAADTAVYYCAIEGANFKDFGYVAFDIWGQGTMVTVSS
VL: B5 VL
notes: as for B1
B7: anti-TIGIT antibody clone 29499 (antibody, V domains shown)
VH: B6 VH with V2L, G32S, S33R, L36W, F54G, R55T, E66K, A90T, K105R
VL: B5 VL
notes: as for B1
B8: anti-TIGIT antibody clone 26521 (antibody, V domains shown)
VH: QVQLVQSGAEVKKPGSSVKVSCKASGGTFSSYAISWVRQAPGQGLEWMGGIIPIFGTANYAQKFQGRVTITADESTSTAYMELSSLRSEDTAVYYCARLHLGSSAYYGMDVWGQGTTVTVSS
VL: DIQMTQSPSSLSASVGDRVTITCRASQSISSYLNWYQQKPGKAPKLLIYAASSLQSGVPSRFSGSGSGTDFTLTISSLQPEDFATYYCQQRYVFPPTFGGGTKVEIK
notes: Naive parent clone, VH1-69; human IgG; Fab for 'Fab KD' columns
B9: anti-TIGIT antibody clone 29513 (antibody, V domains shown)
VH: B8 VH with S30Q, S31N, G50V, I52V, I70V, S103Q, S104K
VL: B8 VL
notes: as for B1
B10: comparative anti-TIGIT antibody 4.1D3.Q1E (antibody, human IgG1, V domains shown)
VH: EVQLQQSGPGLVKPSQTLSLTCAISGDSVSSNSAAWNWIRQSPSRGLEWLGKTYYRFKWYSDYAVSVKGRITINPDTSKNQFSLQLNSVTPEDTAVFYCTRESTTYDLLAGPFDYWGQGTLVTVSS
VL: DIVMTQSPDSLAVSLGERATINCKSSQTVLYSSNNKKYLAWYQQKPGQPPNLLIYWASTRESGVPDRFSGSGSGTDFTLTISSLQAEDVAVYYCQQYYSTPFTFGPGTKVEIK
B11: comparative anti-TIGIT antibody 31C6 (MEB125.31C6.A1.205 VH4/VL1) (antibody, human IgG1, V domains shown)
VH: EVQLVQSGAEVKKPGASVKVSCKASGYTFSSYVMHWVRQAPGQGLEWIGYIDPYNDGAKYAQKFQGRVTLTSDKSTSTVYMELSSLRSEDTAVYYCARGGPYGWYFDVWGQGTTVTVSS
VL: DIQMTQSPSSLSASVGDRVTITCRASEHIYSYLSWYQQKPGKAPKLLIYNAKTLAEGVPSRFSGSGSGTDFTLTISSLQPEDFATYYCQHHFGSPLTFGQGTRLEIK
B12: comparative anti-TIGIT antibody 22G2 (antibody, human IgG1, V domains shown)
VH: QVHLQESGPGLVKPSETLSLTCTVSGGSVSSGIYYWSWIRQPPGKGLEWIGYIYYSGSTNYNPSLKSRVTISVDTSKNQFSLKLSSVTAADTAVYYCARDYYVSGNYYNVDYYFFGVDVWGQGTTVTVSS
VL: EIVLTQSPATLSLSPGERATLSCRASQSVSSYLAWYQQKPGQAPRLLIYDASNRATGIPARFSGSGSGTDFTLTISSLEPEDFAVYYCQQRSNWPPLFTFGPGTKVDIK
B13: anti-TIGIT antibody clone 32919 (antibody, V domains shown)
VH: B6 VH with V2L, M120T
VL: B4 VL with K53N, V91E, H92N, N93P, F94R, L96R
notes: L1/L2/L3 optimised from 31288; human IgG
B14: anti-TIGIT antibody clone 32931 (antibody, V domains shown)
VH: B6 VH with V2L, M120T
VL: B5 VL with Q27K, G50F, S91T, P92S
notes: as for B13

The binders below were run against T1, human TIGIT on cells (Jurkat-hTIGIT, …) (assay: cell-based or functional assay).

luciferase induction over isotype control (fold change), Jurkat-hTIGIT + CHO-TCR-CD155 bioassay, 133 nM antibody [fold]	Binder
2.52	B1
2.4	B2
2.96	B3
3.57	B4
1.9	B5
3.42	B6
3.68	B7
2.66	B8
3.26	B9

Biological target: T1, human TIGIT on cells (Jurkat-hTIGIT, …)
Experiment: cell-based or functional assay
Remark: another data set of the same source

EC50 (nM), luciferase, Jurkat-hTIGIT + CHO-CD155 [nM]	luciferase induction over isotype control (fold change), Jurkat-hTIGIT + CHO-CD155 [fold]	Binder
10.3	5.8	B10
5.3	6.7	B11
5.2	5.3	B12

Biological target: T1, human TIGIT on cells (Jurkat-hTIGIT, …)
Experiment: cell-based or functional assay
Remark: another data set of the same source

EC50 (nM), IFNg, human primary CD8+ T cells + CHO-CD155 [nM]	IFNg induction over isotype control (fold change), human primary CD8+ T cells + CHO-CD155 [fold]	Binder
1.43	2.9	B10
0.3	1.6	B11
0.41	1.5	B12

The binders below were run against T1, human TIGIT on cells (Jurkat-hTIGIT, …) (assay: flow cytometry on Jurkat-hTIGIT, 100 nM antibody, vs untransfected Jurkat).
Method: (§1) Antibodies were incubated with the cells for 20 min at 4° C. in FACS buffer. […] Geometric mean fluorecence intensity was analysed using LSR BD Fortessa. Cell binding was recorded as the median florescence intensity of PE on the transfected line compared to the un-transfected line for each antibody (Table 3).

Cell binding FON (Fold Over Negative) [fold over negative]	Binder
166	B1
150	B2
142	B3
182	B4
143	B5
680	B13
741	B14
164	B6
164	B7
146	B8
156	B9

What follows are binders tested against T2, mouse TIGIT on cells (Jurkat-mTIGIT) (assay: flow cytometry on Jurkat-mTIGIT, 100 nM antibody, vs untransfected Jurkat).
Method: as §1

Cell binding FON (Fold Over Negative) [fold over negative]	Binder
535	B1
502	B2
414	B3
500	B4
199	B5
511	B6
541	B7
218	B8
406	B9

From US20220306733A1 (ITEOS BELGUIM, published 2022)
